How the values were obtained:
Test in all cases: pulldown
PRR3 (Homo sapiens) = target: T1, PRR3 (Homo sapiens) (UniProt P79522); settings: 20 nM protein, 1.5 uM RNA pool; 20 mM HEPES pH 7.8, 70 mM KCl, 10 mM NaCl, 10% glycerol, 2 mM DTT, 0.1 ug/uL BSA; 30 min, 4 C
T1 sequence: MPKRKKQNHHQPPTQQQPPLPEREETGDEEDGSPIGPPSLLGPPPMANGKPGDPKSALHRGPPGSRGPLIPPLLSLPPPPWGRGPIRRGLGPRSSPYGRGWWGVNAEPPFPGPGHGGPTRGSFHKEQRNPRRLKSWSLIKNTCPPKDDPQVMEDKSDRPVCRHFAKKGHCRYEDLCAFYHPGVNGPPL

[1] = target: T2, qkr58E-2 (Drosophila melanogaster) (UniProt Q5BID2); settings: 20 nM protein, 1.5 uM RNA pool; 20 mM HEPES pH 7.8, 70 mM KCl, 10 mM NaCl, 10% glycerol, 2 mM DTT, 0.1 ug/uL BSA; 30 min, 4 C
T2 sequence: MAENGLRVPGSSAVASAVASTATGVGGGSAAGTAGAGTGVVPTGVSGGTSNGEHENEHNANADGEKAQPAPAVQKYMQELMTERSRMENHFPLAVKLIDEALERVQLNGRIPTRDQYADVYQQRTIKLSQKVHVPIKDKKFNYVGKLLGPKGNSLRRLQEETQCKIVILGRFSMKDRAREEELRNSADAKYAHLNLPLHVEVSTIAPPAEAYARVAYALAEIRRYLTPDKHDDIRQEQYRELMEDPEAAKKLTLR

[2] = target: T3, PF14_0151 (Plasmodium falciparum) (UniProt Q8ILU3); settings: 20 nM protein, 1.5 uM RNA pool; 20 mM HEPES pH 7.8, 70 mM KCl, 10 mM NaCl, 10% glycerol, 2 mM DTT, 0.1 ug/uL BSA; 30 min, 4 C
T3 sequence: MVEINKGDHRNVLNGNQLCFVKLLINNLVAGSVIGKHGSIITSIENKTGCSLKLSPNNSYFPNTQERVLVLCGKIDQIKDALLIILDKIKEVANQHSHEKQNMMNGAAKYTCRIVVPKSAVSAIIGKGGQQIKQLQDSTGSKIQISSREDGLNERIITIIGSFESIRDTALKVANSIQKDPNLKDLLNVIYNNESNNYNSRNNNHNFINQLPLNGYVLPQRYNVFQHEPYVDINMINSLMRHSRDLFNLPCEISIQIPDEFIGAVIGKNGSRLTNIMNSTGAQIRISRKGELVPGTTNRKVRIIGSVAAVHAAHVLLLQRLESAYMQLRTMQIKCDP

[3] = target: T4, PK01594.1 (Cannabis sativa) (UniProt A0A803NG34); settings: 20 nM protein, 1.5 uM RNA pool; 20 mM HEPES pH 7.8, 70 mM KCl, 10 mM NaCl, 10% glycerol, 2 mM DTT, 0.1 ug/uL BSA; 30 min, 4 C
T4 sequence: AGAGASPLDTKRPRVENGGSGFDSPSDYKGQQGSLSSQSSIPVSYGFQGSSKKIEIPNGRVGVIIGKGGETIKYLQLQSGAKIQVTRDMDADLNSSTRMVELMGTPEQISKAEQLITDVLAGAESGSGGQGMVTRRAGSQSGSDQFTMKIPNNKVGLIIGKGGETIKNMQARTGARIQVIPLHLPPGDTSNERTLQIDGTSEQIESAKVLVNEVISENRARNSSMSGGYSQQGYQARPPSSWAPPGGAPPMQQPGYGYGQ

[4] = target: T5, rbm14 (Xenopus tropicalis) (UniProt A0A8J0QJ94); settings: 20 nM protein, 1.5 uM RNA pool; 20 mM HEPES pH 7.8, 70 mM KCl, 10 mM NaCl, 10% glycerol, 2 mM DTT, 0.1 ug/uL BSA; 30 min, 4 C
T5 sequence: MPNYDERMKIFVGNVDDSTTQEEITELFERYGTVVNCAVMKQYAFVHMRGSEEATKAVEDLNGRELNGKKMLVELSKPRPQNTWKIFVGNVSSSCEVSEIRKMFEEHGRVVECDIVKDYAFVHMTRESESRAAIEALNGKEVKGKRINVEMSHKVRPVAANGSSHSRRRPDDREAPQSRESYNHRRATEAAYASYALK

[5] = target: T6, CG15440 (Drosophila melanogaster) (UniProt Q7KU43); settings: 20 nM protein, 1.5 uM RNA pool; 20 mM HEPES pH 7.8, 70 mM KCl, 10 mM NaCl, 10% glycerol, 2 mM DTT, 0.1 ug/uL BSA; 30 min, 4 C
T6 sequence: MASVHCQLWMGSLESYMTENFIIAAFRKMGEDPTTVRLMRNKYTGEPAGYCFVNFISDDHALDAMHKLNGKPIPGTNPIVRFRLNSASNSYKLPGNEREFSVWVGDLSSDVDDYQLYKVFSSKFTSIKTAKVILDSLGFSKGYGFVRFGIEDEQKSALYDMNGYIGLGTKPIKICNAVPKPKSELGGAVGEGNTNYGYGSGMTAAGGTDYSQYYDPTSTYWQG

[6] = target: T7, Hrb27C (Drosophila melanogaster) (UniProt P48809); settings: 20 nM protein, 1.5 uM RNA pool; 20 mM HEPES pH 7.8, 70 mM KCl, 10 mM NaCl, 10% glycerol, 2 mM DTT, 0.1 ug/uL BSA; 30 min, 4 C (protocol of this paper; not …); cited from earlier work
T7 sequence: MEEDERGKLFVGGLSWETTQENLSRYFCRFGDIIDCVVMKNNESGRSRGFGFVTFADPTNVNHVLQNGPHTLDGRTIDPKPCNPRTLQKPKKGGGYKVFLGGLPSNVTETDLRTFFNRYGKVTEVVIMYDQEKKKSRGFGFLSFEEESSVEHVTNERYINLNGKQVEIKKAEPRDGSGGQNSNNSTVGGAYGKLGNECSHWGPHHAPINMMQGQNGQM

[7] = target: T8, RNPC3 ins163_E (Gallus gallus) (UniProt A0A8V0ZU58); settings: 20 nM protein, 1.5 uM RNA pool; 20 mM HEPES pH 7.8, 70 mM KCl, 10 mM NaCl, 10% glycerol, 2 mM DTT, 0.1 ug/uL BSA; 30 min, 4 C
T8 sequence: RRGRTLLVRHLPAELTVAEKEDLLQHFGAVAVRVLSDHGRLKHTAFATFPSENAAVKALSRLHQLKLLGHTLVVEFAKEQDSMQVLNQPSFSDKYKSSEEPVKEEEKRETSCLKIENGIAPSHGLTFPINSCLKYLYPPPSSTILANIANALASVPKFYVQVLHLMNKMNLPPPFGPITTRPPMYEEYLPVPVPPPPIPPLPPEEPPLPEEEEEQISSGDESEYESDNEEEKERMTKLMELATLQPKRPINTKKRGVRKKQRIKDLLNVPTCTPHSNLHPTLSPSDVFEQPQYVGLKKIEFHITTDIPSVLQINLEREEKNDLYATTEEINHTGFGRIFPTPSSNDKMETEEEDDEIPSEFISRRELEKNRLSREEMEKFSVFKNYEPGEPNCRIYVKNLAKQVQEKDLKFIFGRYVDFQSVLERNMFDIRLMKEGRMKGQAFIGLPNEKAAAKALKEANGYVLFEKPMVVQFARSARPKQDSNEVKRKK

[8] = target: PGTG_09691 (Puccinia graminis) (UniProt E3KI53); settings: 20 nM protein, 1.5 uM RNA pool; 20 mM HEPES pH 7.8, 70 mM KCl, 10 mM NaCl, 10% glycerol, 2 mM DTT, 0.1 ug/uL BSA; 30 min, 4 C

Substance: AUAAGC [RNAcompete motif RNCMPT00628]
- binding signal (z-score (mean of top ten 7-mers)) (PRR3 (Homo sapiens)): 15.2

Substance: AUAAUA [RNAcompete motif RNCMPT00637]
- binding signal (z-score (mean of top ten 7-mers)) [1]: 13

Substance: AUACANA [RNAcompete motif RNCMPT00505]
- binding signal (z-score (mean of top ten 7-mers)) [2]: 8.57

Substance: AUAUUGU [RNAcompete motif RNCMPT00478]
- binding signal (z-score (mean of top ten 7-mers)) [3]: 7.33

Substance: CGACGA [RNAcompete motif RNCMPT00514]
- binding signal (z-score (mean of top ten 7-mers)) [4]: 10.1

Substance: GAUAUU [RNAcompete motif RNCMPT00513]
- binding signal (z-score (mean of top ten 7-mers)) [5]: 13.9

Substance: UAGGNUA [RNAcompete motif RNCMPT00093]
- binding signal (z-score (mean of top ten 7-mers)) [6]: 12.1

Substance: UUACGUA [RNAcompete motif RNCMPT00630]
- binding signal (z-score (mean of top ten 7-mers)) [7]: 6.68

Substance: UUGCAC [RNAcompete motif RNCMPT00482]
- binding signal (z-score (mean of top ten 7-mers)) [8]: 11.4
